What is called Km is the substrate concentration at which the rate is half of its maximum.

Results on 9 molecules are retold here after patent US6905854B2, “Mutated penicillin expandase and process for preparing 7-ADCA using the same” (Synmax Biochemical Co., Ltd., priority 2002, dated 2005).

Data set [1] can be described thus: Kinetic assay of purified DAOCS with penicillin G (standard penicillin G assay, HPLC of cephalosporin G). In kind it is biochemical. The note with it: for penicillin G, 20 μg purified DAOCS, 1 mM α-ketoglutarate, 30° C.; for Km: triplicate, Hanes-Woolf Plot. As for the experimental part:
For penicillin G, 20 μl of cell extracts was added into a standard 200 μl assay reaction containing 50 mM Mops/pH 7.5, 4 mM ascorbate, 1 mM FeSO4, 4 mM α-ketoglutarate and 7 mM penicillin G, and incubated at 30° C. for 20 minutes. The reaction was stopped by addition of 200 μl of ethanol, followed by a centrifugation at 15,000×g for 5 minutes. The concentration of cephalosporin G in supernatant was analyzed by HPLC with 40 μl injection. The mobile phase was 25 mM potassium phosphate/pH 6.5 with 19% acetonitrile at a flow rate of 1 ml/min. The retention time for cephalosporin G was 8.5 minutes and 12.5 minutes for penicillin G with detection at 215 nm, and the product at 8.5 minutes in DAOCS reaction was confirmed by ESI-LC/MS (positive): [M+H]^+=333. […] The different combinations of the mutated amino acids mentioned above were also constructed by site-directed mutagenesis.
(§1) The cell extract (2 ml) of a candidate mutant was applied onto a HiTrap Q column (5 ml) pre-equilibrated with buffer B (50 mM Mops/pH 7.5, 1 mM DTT, 0.4 mM pefabloc SC, and 0.5 μg/ml leupeptin). Then, the column was washed with 20 ml of buffer B, followed by a further wash with 25 ml of buffer B containing 120 mM NaCl, and DAOCS was eluted off with 20 ml of buffer B containing 150 mM NaCl. The DAOCS containing fractions were pooled (10 ml), concentrated by UF 15 device (NMWL 5K; Millipore), and loaded onto a Hiload Superdex 75 (16/60) column pre-equilibrated with buffer B at a flow rate of 1 ml/min.
(§2) The standard penicillin G assay was followed for kinetic assay, but 20 μg of purified DAOCS was used and the concentration of α-ketoglutarate was reduced to 1 mM. Kinetic parameters were obtained from triplicate experiments by Hanes-Woolf Plot. For assays using penicillin N as a main substrate, a total volume of 240 μl reaction containing 50 mM Hepes/pH 7.5, 0.4 mM ascorbate, 0.1 mM FeSO4, 0.1 mM α-ketoglutarate, 0.1 mM penicillin N and 0.5 μg of purified DAOCS was incubated at 30° C. for 10 minutes, then the same volume of 10 mM EDTA/pH 7.5 was added, and the mixture was subjected to ultrafiltration with UF 0.5 device (NMWL 5000, Millipore). The filtrate was analyzed by HPLC using 25 mM potassium phosphate/pH 6.5 as a mobile phase. The retention time of DAOC and penicillin N was 12 minutes and 13.5 minutes, respectively The results of kinetic parameters are shown in Table 1, wherein the definition and calculation of the parameters are described in Lehninger et al. Principles of Biochemistry, 2nd Ed. Worth Publishers, New York (1993) which is incorporated herein for reference.

A short description of data set [2]: Kinetic assay of purified DAOCS with penicillin N as main substrate. Format: biochemical. The note with it: for penicillin N, 0.5 μg purified DAOCS, 30° C., 10 minutes; for Km: triplicate, Hanes-Woolf Plot. How it is done: as §1, §2

B1: YS125: mutated DAOCS with substitution N304L as disclosed in Chin H. S. et al (protein, UniProt P18548 1-311, looked up, variant N304L)
Deacetoxycephalosporin C …: MDTTVPTFSLAELQQGLHQDEFRRCLRDKGLFYLTDCGLTDTELKSAKDLVIDFFEHGSEAEKRAVTSPVPTMRRGFTGLESESTAQITNTGSYSDYSMCYSMGTADNLFPSGDFERIWTQYFDRQYTASRAVAREVLRATGTEPDGGVEAFLDCEPLLRFRYFPQVPEHRSAEEQPLRMAPHYDLSMVTLIQQTPCANGFVSLQAEVGGAFTDLPYRPDAVLVFCGAIATLVTGGQVKAPRHHVAAPRRDQIAGSSRTSSVFFLRPNADFTFSVPLARECGFDVSLDGETATFQDWIGGNYVLIRRTSKA
Consider B1, for which, in data set [1], the kcat is on record as 0.0402 ± 0.0006 S^−1 and the Km was 550 ± 120 µM. In data set [2], the kcat was found to be 0.415 ± 0.063 S^−1 and the Km stood at 18 ± 4 µM.

B2: YS123: mutated penicillin expandase (DAOCS) with substitution H244Q (protein, UniProt P18548 1-311, looked up, variant H244Q)
Deacetoxycephalosporin C …: MDTTVPTFSLAELQQGLHQDEFRRCLRDKGLFYLTDCGLTDTELKSAKDLVIDFFEHGSEAEKRAVTSPVPTMRRGFTGLESESTAQITNTGSYSDYSMCYSMGTADNLFPSGDFERIWTQYFDRQYTASRAVAREVLRATGTEPDGGVEAFLDCEPLLRFRYFPQVPEHRSAEEQPLRMAPHYDLSMVTLIQQTPCANGFVSLQAEVGGAFTDLPYRPDAVLVFCGAIATLVTGGQVKAPRHQVAAPRRDQIAGSSRTSSVFFLRPNADFTFSVPLARECGFDVSLDGETATFQDWIGGNYVNIRRTSKA
Take B2: in data set [1], the kcat stood at 0.0698 ± 0.0012 S^−1 and the Km was 1390 ± 90 µM. In data set [2], the kcat was found to be 0.260 ± 0.006 S^−1 and the Km is 9 ± 1.5 µM.

B3: YS115: mutated penicillin expandase (DAOCS) with substitution M73T (protein, UniProt P18548 1-311, looked up, variant M73T)
Deacetoxycephalosporin C …: MDTTVPTFSLAELQQGLHQDEFRRCLRDKGLFYLTDCGLTDTELKSAKDLVIDFFEHGSEAEKRAVTSPVPTTRRGFTGLESESTAQITNTGSYSDYSMCYSMGTADNLFPSGDFERIWTQYFDRQYTASRAVAREVLRATGTEPDGGVEAFLDCEPLLRFRYFPQVPEHRSAEEQPLRMAPHYDLSMVTLIQQTPCANGFVSLQAEVGGAFTDLPYRPDAVLVFCGAIATLVTGGQVKAPRHHVAAPRRDQIAGSSRTSSVFFLRPNADFTFSVPLARECGFDVSLDGETATFQDWIGGNYVNIRRTSKA
Take B3: in data set [1], the kcat was determined as 0.0627 ± 0.0021 S^−1 and the Km amounted to 740 ± 160 µM. Besides, in data set [2], the kcat came out at 0.239 ± 0.009 S^−1 and the Km is 6 ± 3 µM.

B4: YS59: mutated penicillin expandase (DAOCS) with substitution G79E (protein, UniProt P18548 1-311, looked up, variant G79E)
Deacetoxycephalosporin C …: MDTTVPTFSLAELQQGLHQDEFRRCLRDKGLFYLTDCGLTDTELKSAKDLVIDFFEHGSEAEKRAVTSPVPTMRRGFTELESESTAQITNTGSYSDYSMCYSMGTADNLFPSGDFERIWTQYFDRQYTASRAVAREVLRATGTEPDGGVEAFLDCEPLLRFRYFPQVPEHRSAEEQPLRMAPHYDLSMVTLIQQTPCANGFVSLQAEVGGAFTDLPYRPDAVLVFCGAIATLVTGGQVKAPRHHVAAPRRDQIAGSSRTSSVFFLRPNADFTFSVPLARECGFDVSLDGETATFQDWIGGNYVNIRRTSKA
Consider B4, for which the results for the kcat in data set [1] and in data set [2] were 0.0315 ± 0.0003 S^−1 and 0.178 ± 0.019 S^−1, respectively. For the same molecule, the Michaelis constant (Km) in data set [1] was 750 ± 20 µM; in data set [2], 9 ± 3 µM.

B5: YS87: mutated penicillin expandase (DAOCS) with substitution T91A (protein, UniProt P18548 1-311, looked up, variant T91A)
Deacetoxycephalosporin C …: MDTTVPTFSLAELQQGLHQDEFRRCLRDKGLFYLTDCGLTDTELKSAKDLVIDFFEHGSEAEKRAVTSPVPTMRRGFTGLESESTAQITNAGSYSDYSMCYSMGTADNLFPSGDFERIWTQYFDRQYTASRAVAREVLRATGTEPDGGVEAFLDCEPLLRFRYFPQVPEHRSAEEQPLRMAPHYDLSMVTLIQQTPCANGFVSLQAEVGGAFTDLPYRPDAVLVFCGAIATLVTGGQVKAPRHHVAAPRRDQIAGSSRTSSVFFLRPNADFTFSVPLARECGFDVSLDGETATFQDWIGGNYVNIRRTSKA
On to B5, for which, in data set [1], the kcat turned out to be 0.0522 ± 0.0004 S^−1 and the Michaelis-Menten constant (Km) was found to be 1360 ± 90 µM. In data set [2], the kcat is given as 0.247 ± 0.006 S^−1 and the Km was found to be 9 ± 0.5 µM.

B6: YS5: mutated penicillin expandase (DAOCS) with substitution V275I (protein, UniProt P18548 1-311, looked up, variant V275I)
Deacetoxycephalosporin C …: MDTTVPTFSLAELQQGLHQDEFRRCLRDKGLFYLTDCGLTDTELKSAKDLVIDFFEHGSEAEKRAVTSPVPTMRRGFTGLESESTAQITNTGSYSDYSMCYSMGTADNLFPSGDFERIWTQYFDRQYTASRAVAREVLRATGTEPDGGVEAFLDCEPLLRFRYFPQVPEHRSAEEQPLRMAPHYDLSMVTLIQQTPCANGFVSLQAEVGGAFTDLPYRPDAVLVFCGAIATLVTGGQVKAPRHHVAAPRRDQIAGSSRTSSVFFLRPNADFTFSIPLARECGFDVSLDGETATFQDWIGGNYVNIRRTSKA
Consider B6, for which the kcat in data set [1] was found to be 0.0502 ± 0.0012 S^−1; in data set [2], 0.252 ± 0.020 S^−1. The Michaelis constant (Km) in data set [1] stood at 1680 ± 200 µM; in data set [2] it was 12 ± 3 µM.

B7: YS110: mutated penicillin expandase (DAOCS) with substitution Y184H (protein, UniProt P18548 1-311, looked up, variant Y184H)
Deacetoxycephalosporin C …: MDTTVPTFSLAELQQGLHQDEFRRCLRDKGLFYLTDCGLTDTELKSAKDLVIDFFEHGSEAEKRAVTSPVPTMRRGFTGLESESTAQITNTGSYSDYSMCYSMGTADNLFPSGDFERIWTQYFDRQYTASRAVAREVLRATGTEPDGGVEAFLDCEPLLRFRYFPQVPEHRSAEEQPLRMAPHHDLSMVTLIQQTPCANGFVSLQAEVGGAFTDLPYRPDAVLVFCGAIATLVTGGQVKAPRHHVAAPRRDQIAGSSRTSSVFFLRPNADFTFSVPLARECGFDVSLDGETATFQDWIGGNYVNIRRTSKA
On to B7, for which the kcat in data set [1] was 0.0798 ± 0.0012 S^−1; in data set [2] it was 0.048 ± 0.005 S^−1. For the same molecule, the Km came to 950 ± 50 µM in data set [1] and 295 ± 30 µM in data set [2].

B8: YS53: mutated penicillin expandase (DAOCS) with substitution C281Y (protein, UniProt P18548 1-311, looked up, variant C281Y)
Deacetoxycephalosporin C …: MDTTVPTFSLAELQQGLHQDEFRRCLRDKGLFYLTDCGLTDTELKSAKDLVIDFFEHGSEAEKRAVTSPVPTMRRGFTGLESESTAQITNTGSYSDYSMCYSMGTADNLFPSGDFERIWTQYFDRQYTASRAVAREVLRATGTEPDGGVEAFLDCEPLLRFRYFPQVPEHRSAEEQPLRMAPHYDLSMVTLIQQTPCANGFVSLQAEVGGAFTDLPYRPDAVLVFCGAIATLVTGGQVKAPRHHVAAPRRDQIAGSSRTSSVFFLRPNADFTFSVPLAREYGFDVSLDGETATFQDWIGGNYVNIRRTSKA
Consider B8, for which, in data set [1], the kcat stood at 0.0744 ± 0.0033 S^−1 and the Km was 680 ± 340 µM. In addition, in data set [2], the kcat worked out at 0.273 ± 0.014 S^−1 and the Km stood at 6 ± 1 µM.

B9: YS103: mutated penicillin expandase (DAOCS) with substitution M188V (protein, UniProt P18548 1-311, looked up, variant M188V)
Deacetoxycephalosporin C …: MDTTVPTFSLAELQQGLHQDEFRRCLRDKGLFYLTDCGLTDTELKSAKDLVIDFFEHGSEAEKRAVTSPVPTMRRGFTGLESESTAQITNTGSYSDYSMCYSMGTADNLFPSGDFERIWTQYFDRQYTASRAVAREVLRATGTEPDGGVEAFLDCEPLLRFRYFPQVPEHRSAEEQPLRMAPHYDLSVVTLIQQTPCANGFVSLQAEVGGAFTDLPYRPDAVLVFCGAIATLVTGGQVKAPRHHVAAPRRDQIAGSSRTSSVFFLRPNADFTFSVPLARECGFDVSLDGETATFQDWIGGNYVNIRRTSKA
For the molecule B9, in data set [1], the kcat was found to be 0.0456 ± 0.0016 S^−1 and the Km was 760 ± 170 µM. Further, in data set [2], the kcat is reported as 0.084 ± 0.002 S^−1 and the Km turned out to be 47 ± 0.5 µM.
